Results reported in article PMC10019781, “Structure and function of Plasmodium actin II in the parasite mosquito stages” (PLOS Pathogens, 2023).

Assays:
[1] = molecular target: the molecule itself; test: dynamic light scattering; polymerizing conditions, without JAS; 1.3 mg/ml, 70 ul, 4°C
[2] = molecular target: the molecule itself; test: dynamic light scattering; non-polymerizing conditions; 1.3 mg/ml, 70 ul, 4°C

B1: Plasmodium actin I (natural protein)
chain: not shown
notes: actin I of Plasmodium; its cited filament structures are of P. falciparum actin I; in the pyrene assays a mixture of pyrene-labelled and unlabelled actin was used; also called F-actin I
stoichiometry N [1]: 2

B2: Plasmodium falciparum actin II (natural protein)
chain: not shown
modifications: methyl-histidine at H73 (around 90% of actin II when expressed in insect cells)
notes: actin II of Plasmodium falciparum, PlasmoDB PF3D7_1412500; gene synthesized and codon-optimized for insect cells; In the pyrene assays (critical concentration, polymerization) a mixture of pyrene-labelled and unlabelled actin (ratio 1:3) was used; The first four N-terminal residues are not resolved in the filament maps; also called PfActII; F-actin II; source: Sf9 (Spodoptera frugiperda) cells, …
stoichiometry N [2]: 2
